In publication PMC4558565 one finds other: VENUS/CFP (norm.) and % of the signal with wt bZIP63 data, which are given here for 3 molecules.

Where “and” joins values, the source holds several entries; their conditions need not be identical. Identical values can stand only once.

In assay [1] the target is bZIP1-VENUSN (m29) signal relative to bZIP11-CFPN (m30) signal. Put plainly: multi-color BiFC in N. tabacum leaves, confocal microscopy. The settings on record: co-transformed with mCherry-tagged AKIN10; 115-118 nuclei; value is the median of the box plot; parent: est. 2.4; read off a plot.
Assay [2] has as its target bZIP63 in which S29 or all three serines were mutated to alanine. The experiment in a line: two-hybrid; protoplast two-hybrid (P2H) in Arabidopsis leaf protoplasts; GAL4-AD and GAL4-BD fusions, GAL-UAS4::GUS reporter normalised to 35S::NAN; without and with co-transformation of AKIN10; 16 hr.

As to “bZIP63 (split-CFP BiFC fusion) (from UniProt B9DGI8) S29A; S294A; S300A”, in assay [1], the other: VENUS/CFP (norm.) was 1.

B1: bZIP11 (protoplast two-hybrid fusion) (natural protein)
chain: MESSSSGTTSSTIQTSSGSEESLMEQRKRKRMLSNRESARRSRMKKQKLLDDLTAQVNHLKKENTEIVTSVSITTQHYLTVEAENSVLRAQLDELNHRLQSLNDIIEFLDSSNNNNNNNMGMCSNPLVGLECDDFFVNQMNMSYIMNQPLMASSDALMY
Turning to B1, in assay [2], the % of the signal with wt bZIP63 is 30% and 40%.

B2: bZIP63 (protoplast two-hybrid fusion) (natural protein)
chain: MEKVFSDEEISGNHHWSVNGMTSLNRSASEWAFNRFIQESSAAADDGESTTACGVSVSSPPNVPVDSEEYRAFLKSKLNLACAAVAMKRGTFIKPQDTSGRSDNGGANESEQASLASSKATPMMSSAITSGSELSGDEEEADGETNMNPTNVKRVKRMLSNRESARRSRRRKQAHLSELETQVSQLRVENSKLMKGLTDVTQTFNDASVENRVLKANIETLRAKVKMAEETVKRLTGFNPMFHNMPQIVSTVSLPSETSNSPDTTSSQVTTPEIISSGNKGKALIGCKMNRTASMRRVESLEHLQKRIRSVGDQ
Take B2: the % of the signal with wt bZIP63 in assay [2] is 30% and 40%.
